Test results from patent US20200123264A1 (Regeneron, published 2020).

T1: full-length human LEPR on IMR-32/STAT3-Luc/hLEPR cells (human, UniProt P48357 22-1165)
T1 sequence (looked up): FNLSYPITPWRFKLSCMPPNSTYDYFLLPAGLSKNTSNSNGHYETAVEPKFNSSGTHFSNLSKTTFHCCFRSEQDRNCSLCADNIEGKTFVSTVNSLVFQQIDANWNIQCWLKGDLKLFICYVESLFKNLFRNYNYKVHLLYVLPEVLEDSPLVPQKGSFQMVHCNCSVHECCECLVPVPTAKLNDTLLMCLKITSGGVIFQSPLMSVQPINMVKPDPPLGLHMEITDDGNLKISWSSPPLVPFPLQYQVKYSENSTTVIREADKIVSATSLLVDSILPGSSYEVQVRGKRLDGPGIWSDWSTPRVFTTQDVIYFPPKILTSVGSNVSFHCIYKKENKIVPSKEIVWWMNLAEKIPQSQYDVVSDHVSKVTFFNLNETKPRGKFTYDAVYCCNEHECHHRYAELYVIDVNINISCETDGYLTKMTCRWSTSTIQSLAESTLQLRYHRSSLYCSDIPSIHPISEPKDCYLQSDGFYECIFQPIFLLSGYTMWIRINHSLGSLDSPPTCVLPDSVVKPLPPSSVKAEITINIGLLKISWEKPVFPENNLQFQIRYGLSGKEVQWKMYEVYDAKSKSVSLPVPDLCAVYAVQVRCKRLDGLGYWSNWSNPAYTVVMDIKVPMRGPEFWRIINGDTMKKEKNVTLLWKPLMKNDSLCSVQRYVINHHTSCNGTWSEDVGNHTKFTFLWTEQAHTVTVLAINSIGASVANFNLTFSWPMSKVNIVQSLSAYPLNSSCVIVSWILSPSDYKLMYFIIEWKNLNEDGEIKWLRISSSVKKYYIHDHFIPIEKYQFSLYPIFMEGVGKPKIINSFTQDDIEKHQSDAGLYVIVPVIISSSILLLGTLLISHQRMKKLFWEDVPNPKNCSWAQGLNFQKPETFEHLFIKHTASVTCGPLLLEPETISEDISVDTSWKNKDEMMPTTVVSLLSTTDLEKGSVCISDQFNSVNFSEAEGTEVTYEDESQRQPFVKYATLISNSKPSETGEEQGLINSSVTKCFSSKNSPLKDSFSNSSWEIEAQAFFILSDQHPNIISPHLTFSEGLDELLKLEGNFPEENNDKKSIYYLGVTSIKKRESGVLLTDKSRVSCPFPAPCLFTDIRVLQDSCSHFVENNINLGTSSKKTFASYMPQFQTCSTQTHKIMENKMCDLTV

T2: human LEPR CRH1 (D1,D2,D3)-MMH (human, UniProt P48357 22-427, limits assumed)
T2 construct: domain: CRH1-Ig (D1,D2,D3); Transiently expressed, captured from supernatant on anti-myc beads; also called CRH1-Ig (D1, D2, D3)
T2 sequence (looked up): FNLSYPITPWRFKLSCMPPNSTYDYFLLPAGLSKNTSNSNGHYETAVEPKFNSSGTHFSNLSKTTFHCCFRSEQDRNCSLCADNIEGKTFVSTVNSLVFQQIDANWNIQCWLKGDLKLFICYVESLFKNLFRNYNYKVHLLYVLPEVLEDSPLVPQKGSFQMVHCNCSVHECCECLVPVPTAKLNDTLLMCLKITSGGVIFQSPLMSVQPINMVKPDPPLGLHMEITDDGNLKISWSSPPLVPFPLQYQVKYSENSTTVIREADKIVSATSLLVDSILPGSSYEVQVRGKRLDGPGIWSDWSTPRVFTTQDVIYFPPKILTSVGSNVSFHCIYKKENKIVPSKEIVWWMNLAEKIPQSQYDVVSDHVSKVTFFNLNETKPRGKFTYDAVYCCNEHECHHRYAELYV

T3: human LEPR Ig (D3)-MMH (human, UniProt P48357 340-427, limits assumed)
T3 construct: domain: Ig (D3); Transiently expressed, captured from supernatant on anti-myc beads
T3 sequence (looked up): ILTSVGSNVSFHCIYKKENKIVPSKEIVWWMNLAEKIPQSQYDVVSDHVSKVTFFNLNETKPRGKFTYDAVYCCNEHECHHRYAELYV

T4: human LEPR Ig-CRH2-FNIII-MMH (human, UniProt P48357 330-839, limits assumed)
T4 construct: domain: Ig-CRH2-FNIII; Transiently expressed, captured from supernatant on anti-myc beads
T4 sequence (looked up): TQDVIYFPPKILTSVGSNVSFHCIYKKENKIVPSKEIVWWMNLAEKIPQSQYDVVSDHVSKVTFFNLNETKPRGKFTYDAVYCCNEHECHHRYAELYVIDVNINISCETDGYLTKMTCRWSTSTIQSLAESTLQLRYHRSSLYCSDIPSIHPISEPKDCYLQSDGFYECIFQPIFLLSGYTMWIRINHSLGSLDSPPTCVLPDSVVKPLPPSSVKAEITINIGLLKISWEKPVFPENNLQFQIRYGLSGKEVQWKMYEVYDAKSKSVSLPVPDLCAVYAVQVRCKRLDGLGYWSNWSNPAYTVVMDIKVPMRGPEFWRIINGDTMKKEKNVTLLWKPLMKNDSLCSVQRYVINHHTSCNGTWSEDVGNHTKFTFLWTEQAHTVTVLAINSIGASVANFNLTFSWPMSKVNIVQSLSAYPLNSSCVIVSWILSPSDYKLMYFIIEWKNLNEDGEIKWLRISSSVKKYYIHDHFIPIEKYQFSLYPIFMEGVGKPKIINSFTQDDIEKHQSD

B1: H4H18464P2 (antibody, human IgG4, V domains shown)
VH: QVQLVQSGPEVKKPGASVKVSCKGSGYTFSWYGISWIRQAPGHGLEWMGWISASSGNTRFAQKVQGRLTMTTDTSTSTAYMELRSLRSDDTAVYYCARTGTRPFDYWGQGTLVTVSS
VL: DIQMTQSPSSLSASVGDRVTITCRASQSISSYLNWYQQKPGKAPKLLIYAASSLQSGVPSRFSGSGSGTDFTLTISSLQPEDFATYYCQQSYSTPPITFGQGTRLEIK
notes: H4H prefix: human IgG4 Fc
B2: H4H18462P2 (antibody, human IgG4, V domains shown)
VH: EVQLVESGGDLVQPGRSLRLSCAASGFTFSSFAMSWVRQAPGRGLEWVSSLSDSGDNTYYADSVKGRFTISRDNSKNTLYLQMNNLRAEDTAVYYCAKDLFSGWLFHGFDVWGQGTMVTVSS
VL: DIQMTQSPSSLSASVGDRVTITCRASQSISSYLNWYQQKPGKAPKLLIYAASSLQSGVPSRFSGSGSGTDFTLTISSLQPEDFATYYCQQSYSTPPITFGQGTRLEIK
notes: H4H prefix: human IgG4 Fc
B3: H4H18440P2 (antibody, human IgG4, V domains shown)
VH: QVQLVESGGGMVKPGGSLRLSCAASGFTFSDYYMSWIRQAPGKGLEWISHISITGSTIYYADSVKGRFTISRDNAKNSLYLEMNRLRDEDTAVYYCTRDEPDIVLVRYGMDVWGQGTTVTVSS
VL: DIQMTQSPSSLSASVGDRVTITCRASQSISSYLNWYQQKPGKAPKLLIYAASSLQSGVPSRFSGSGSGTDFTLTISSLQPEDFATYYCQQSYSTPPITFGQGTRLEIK
notes: H4H prefix: human IgG4 Fc
B4: H4H18457P2 (antibody, human IgG4, V domains shown)
VH: EVQLVESGGSVVRPGESLRLSCAASGFTFDDYGMSWVRQAPGKGLEWVSGISWNGGITVYADSVKGRFTVSRDNAKNSLYLQMNSLRAEDTALYHCARARYGGADYWGQGTLVTVSS
VL: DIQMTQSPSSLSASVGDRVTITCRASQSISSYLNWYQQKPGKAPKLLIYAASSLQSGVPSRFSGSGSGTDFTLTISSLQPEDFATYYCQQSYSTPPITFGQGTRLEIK
notes: H4H prefix: human IgG4 Fc

Legend:
[1] = target: T1, full-length human LEPR on …; experiment: cell-based or functional assay
[2] = target: T2, human LEPR CRH1 (D1,D2,D3)-MMH; experiment: Luminex, myc-captured LEPR protein on beads, Ab 0.5 µg/mL
Procedure: (§1) Aliquots of microspheres with immobilized anti-myc monoclonal antibodies, prepared as described above, were added individually to 1 mL of the each of these protein supernatants. The microspheres were gently mixed, incubated for two hours at 25° C., washed twice with 1 mL of DBPS, centrifuged to remove the supernatant and finally resuspended in 1 mL of DPBS buffer. Forty eight μL of anti-myc IgG coupled microspheres from individual reactions with full length human LEPR and with each of the human LEPR domain proteins were withdrawn and mixed together in 3.6 mL of PBS+20 mg/mL BSA+0.05% sodium azide (blocking buffer).
(§2) From this mixed pool, 75 μL of microspheres were plated per well on a 96 well filter plate (Millipore, Cat. No: MSBVN1250) and mixed with 25 μL of individual anti-human LEPR monoclonal antibodies (0.5 or 5 μg/mL), incubated for two hours at 25° C. and then washed twice with 200 μL of DPBS with 0.05% Tween 20 (washing buffer). […] After 30 minutes, the samples were washed twice with 200 μL of washing buffer and resuspended in 150 μL of wash buffer. The Median Fluorescence intensity (MFI) of the microspheres was measured in a Luminex Analyzer.

[3] = target: T3, human LEPR Ig (D3)-MMH; experiment: as above
Procedure: as §1, §2

[4] = target: T4, human LEPR Ig-CRH2-FNIII-MMH; experiment: as above
Procedure: as §1, §2

% activation, IMR-32/LEPR without human Leptin [1] | % inhibition, IMR-32/LEPR with 200 pM human Leptin [1] | EC50 (M), IMR-32/LEPR without human Leptin (STAT3-Luc) [1] | IC50 (M), IMR-32/LEPR with 200 pM human Leptin [1] | Luminex MFI [2] | Luminex MFI [3] | Luminex MFI [4] | Binder
6% | 100% | 1.3e-10 M | 2.9e-09 M | – | – | – | B1
– | – | – | – | 461 MFI | 10 MFI | 11200 MFI | B2
4% | – | – | – | – | – | – | B3
– | 100% | – | 7.23e-10 M | – | – | – | B4
